T1: EsCas13d, nuclease-dead (Eubacterium siraeum, UniProt B0MS50, R295A;H300A;R849A;H854A)
T1 sequence: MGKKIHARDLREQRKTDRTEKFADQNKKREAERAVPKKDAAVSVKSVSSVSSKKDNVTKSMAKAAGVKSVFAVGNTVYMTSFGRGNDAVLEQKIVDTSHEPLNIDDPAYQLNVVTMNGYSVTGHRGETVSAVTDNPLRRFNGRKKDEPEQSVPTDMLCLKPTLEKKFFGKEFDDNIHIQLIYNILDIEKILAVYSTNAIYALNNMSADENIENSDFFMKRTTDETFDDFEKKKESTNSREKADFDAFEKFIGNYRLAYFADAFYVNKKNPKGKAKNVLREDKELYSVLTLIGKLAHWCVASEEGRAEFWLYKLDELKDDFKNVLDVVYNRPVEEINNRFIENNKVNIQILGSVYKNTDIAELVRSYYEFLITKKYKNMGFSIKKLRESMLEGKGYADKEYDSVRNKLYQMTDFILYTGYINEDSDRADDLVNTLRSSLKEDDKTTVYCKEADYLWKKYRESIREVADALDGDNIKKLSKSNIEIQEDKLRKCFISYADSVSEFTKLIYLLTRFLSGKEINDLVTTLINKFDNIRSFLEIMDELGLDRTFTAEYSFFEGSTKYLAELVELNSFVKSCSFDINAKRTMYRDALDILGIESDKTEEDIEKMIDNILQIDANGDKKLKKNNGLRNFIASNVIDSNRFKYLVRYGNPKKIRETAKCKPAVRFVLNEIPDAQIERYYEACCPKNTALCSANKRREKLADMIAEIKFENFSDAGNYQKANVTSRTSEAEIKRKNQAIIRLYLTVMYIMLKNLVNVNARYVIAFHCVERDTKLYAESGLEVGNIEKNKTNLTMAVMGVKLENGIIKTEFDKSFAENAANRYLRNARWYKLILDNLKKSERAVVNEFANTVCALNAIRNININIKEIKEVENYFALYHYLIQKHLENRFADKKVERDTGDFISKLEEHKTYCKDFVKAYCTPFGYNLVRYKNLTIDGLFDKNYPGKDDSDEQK


Target: T1, EsCas13d, nuclease-dead
Assay: crRNA (strand 1, pre-loaded); Mg2+; 40 mM Tris-HCl pH 7.5, 150 mM NaCl, 6 mM MgCl2, 1 mM DTT, 0.1% Tween-20, 0.2 mg/ml BSA; 25 C; 10 min per concentration, then washed
Settings: tags: His6-TwinStrep-SUMO cleaved; N-terminal SNAP kept (SNAP-Surface 488); label: 3' end held by stalled T7 RNA polymerase

Row | Binder | Kd [nM]
1 | target 2 MT 5'PFS UGC 3'PFS UAU (mixed) RNA 1: CACCCGUGCAAAAUUGCAGGGGUCUAAAACCUUCUCCAAAUUGUUUCAUCCU RNA 2: GGGAAUGGAUCCACAUCUACGAAUUCUGCAGGAUGAAACAAUUUGGAGAAGUAUAGAUCGGAAGAGCACACGU | 14.3 ± 2.6
2 | target 2 MT 5'PFS UAU 3'PFS UAA (mixed) RNA 1: CACCCGUGCAAAAUUGCAGGGGUCUAAAACCUUCUCCAAAUUGUUUCAUCCU RNA 2: GGGAAUGGAUCCACAUCUACGAAUUCUAUAGGAUGAAACAAUUUGGAGAAGUAAAGAUCGGAAGAGCACACGU | 18.1 ± 3
3 | target 2 MT 5'PFS GAG 3'PFS CAC (mixed) RNA 1: CACCCGUGCAAAAUUGCAGGGGUCUAAAACCUUCUCCAAAUUGUUUCAUCCU RNA 2: GGGAAUGGAUCCACAUCUACGAAUUCGAGAGGAUGAAACAAUUUGGAGAAGCACAGAUCGGAAGAGCACACGU | 5.1 ± 0.5
4 | target 2 MT 5'PFS CAC 3'PFS UUC (mixed) RNA 1: CACCCGUGCAAAAUUGCAGGGGUCUAAAACCUUCUCCAAAUUGUUUCAUCCU RNA 2: GGGAAUGGAUCCACAUCUACGAAUUCCACAGGAUGAAACAAUUUGGAGAAGUUCAGAUCGGAAGAGCACACGU | 5.2 ± 1.2
5 | target 2 MT 5'PFS GUA 3'PFS CAA (mixed) RNA 1: CACCCGUGCAAAAUUGCAGGGGUCUAAAACCUUCUCCAAAUUGUUUCAUCCU RNA 2: GGGAAUGGAUCCACAUCUACGAAUUCGUAAGGAUGAAACAAUUUGGAGAAGCAAAGAUCGGAAGAGCACACGU | 4.8 ± 0.5
6 | target 2 MT 5'PFS CAC 3'PFS UUG (mixed) RNA 1: CACCCGUGCAAAAUUGCAGGGGUCUAAAACCUUCUCCAAAUUGUUUCAUCCU RNA 2: GGGAAUGGAUCCACAUCUACGAAUUCCACAGGAUGAAACAAUUUGGAGAAGUUGAGAUCGGAAGAGCACACGU | 2.8 ± 0.5
7 | target 2 MT 5'PFS GAG 3'PFS CAU (mixed) RNA 1: CACCCGUGCAAAAUUGCAGGGGUCUAAAACCUUCUCCAAAUUGUUUCAUCCU RNA 2: GGGAAUGGAUCCACAUCUACGAAUUCGAGAGGAUGAAACAAUUUGGAGAAGCAUAGAUCGGAAGAGCACACGU | 5.14 ± 0.34
8 | target 2 MT 5'PFS GGG 3'PFS CGC (mixed) RNA 1: CACCCGUGCAAAAUUGCAGGGGUCUAAAACCUUCUCCAAAUUGUUUCAUCCU RNA 2: GGGAAUGGAUCCACAUCUACGAAUUCGGGAGGAUGAAACAAUUUGGAGAAGCGCAGAUCGGAAGAGCACACGU | 10.5 ± 0.9
9 | target 2 MT 5'PFS UAU 3'PFS UAC (mixed) RNA 1: CACCCGUGCAAAAUUGCAGGGGUCUAAAACCUUCUCCAAAUUGUUUCAUCCU RNA 2: GGGAAUGGAUCCACAUCUACGAAUUCUAUAGGAUGAAACAAUUUGGAGAAGUACAGAUCGGAAGAGCACACGU | 26 ± 6
10 | target 2 MT 5'PFS UUA 3'PFS ACA (mixed) RNA 1: CACCCGUGCAAAAUUGCAGGGGUCUAAAACCUUCUCCAAAUUGUUUCAUCCU RNA 2: GGGAAUGGAUCCACAUCUACGAAUUCUUAAGGAUGAAACAAUUUGGAGAAGACAAGAUCGGAAGAGCACACGU | 37 ± 7
11 | target 2 MT 5'PFS GGG 3'PFS CGA (mixed) RNA 1: CACCCGUGCAAAAUUGCAGGGGUCUAAAACCUUCUCCAAAUUGUUUCAUCCU RNA 2: GGGAAUGGAUCCACAUCUACGAAUUCGGGAGGAUGAAACAAUUUGGAGAAGCGAAGAUCGGAAGAGCACACGU | 8.2 ± 0.7
12 | target 2 MT 5'PFS UUA 3'PFS ACC (mixed) RNA 1: CACCCGUGCAAAAUUGCAGGGGUCUAAAACCUUCUCCAAAUUGUUUCAUCCU RNA 2: GGGAAUGGAUCCACAUCUACGAAUUCUUAAGGAUGAAACAAUUUGGAGAAGACCAGAUCGGAAGAGCACACGU | 45 ± 14
13 | target 2 MT 5'PFS UGC 3'PFS UAA (mixed) RNA 1: CACCCGUGCAAAAUUGCAGGGGUCUAAAACCUUCUCCAAAUUGUUUCAUCCU RNA 2: GGGAAUGGAUCCACAUCUACGAAUUCUGCAGGAUGAAACAAUUUGGAGAAGUAAAGAUCGGAAGAGCACACGU | 17 ± 6
14 | target 2 MT 5'PFS GAU 3'PFS CCG (mixed) RNA 1: CACCCGUGCAAAAUUGCAGGGGUCUAAAACCUUCUCCAAAUUGUUUCAUCCU RNA 2: GGGAAUGGAUCCACAUCUACGAAUUCGAUAGGAUGAAACAAUUUGGAGAAGCCGAGAUCGGAAGAGCACACGU | 14.2 ± 1.4
15 | target 2 MT 5'PFS GUG 3'PFS AGC (mixed) RNA 1: CACCCGUGCAAAAUUGCAGGGGUCUAAAACCUUCUCCAAAUUGUUUCAUCCU RNA 2: GGGAAUGGAUCCACAUCUACGAAUUCGUGAGGAUGAAACAAUUUGGAGAAGAGCAGAUCGGAAGAGCACACGU | 7.2 ± 0.4
16 | target 2 MT 5'PFS GAG 3'PFS CAA (mixed) RNA 1: CACCCGUGCAAAAUUGCAGGGGUCUAAAACCUUCUCCAAAUUGUUUCAUCCU RNA 2: GGGAAUGGAUCCACAUCUACGAAUUCGAGAGGAUGAAACAAUUUGGAGAAGCAAAGAUCGGAAGAGCACACGU | 4.9 ± 0.7
17 | target 2 MT 5'PFS UUA 3'PFS ACG (mixed) RNA 1: CACCCGUGCAAAAUUGCAGGGGUCUAAAACCUUCUCCAAAUUGUUUCAUCCU RNA 2: GGGAAUGGAUCCACAUCUACGAAUUCUUAAGGAUGAAACAAUUUGGAGAAGACGAGAUCGGAAGAGCACACGU | 81 ± 19
18 | target 2 MT 5'PFS UGC 3'PFS UAC (mixed) RNA 1: CACCCGUGCAAAAUUGCAGGGGUCUAAAACCUUCUCCAAAUUGUUUCAUCCU RNA 2: GGGAAUGGAUCCACAUCUACGAAUUCUGCAGGAUGAAACAAUUUGGAGAAGUACAGAUCGGAAGAGCACACGU | 21 ± 4
19 | target 2 MT 5'PFS GAG 3'PFS CAG (mixed) RNA 1: CACCCGUGCAAAAUUGCAGGGGUCUAAAACCUUCUCCAAAUUGUUUCAUCCU RNA 2: GGGAAUGGAUCCACAUCUACGAAUUCGAGAGGAUGAAACAAUUUGGAGAAGCAGAGAUCGGAAGAGCACACGU | 5.31 ± 0.29
20 | target 2 MT 5'PFS GUG 3'PFS AGU (mixed) RNA 1: CACCCGUGCAAAAUUGCAGGGGUCUAAAACCUUCUCCAAAUUGUUUCAUCCU RNA 2: GGGAAUGGAUCCACAUCUACGAAUUCGUGAGGAUGAAACAAUUUGGAGAAGAGUAGAUCGGAAGAGCACACGU | 12.3 ± 1.1
21 | target 2 MT 5'PFS GUG 3'PFS AGA (mixed) RNA 1: CACCCGUGCAAAAUUGCAGGGGUCUAAAACCUUCUCCAAAUUGUUUCAUCCU RNA 2: GGGAAUGGAUCCACAUCUACGAAUUCGUGAGGAUGAAACAAUUUGGAGAAGAGAAGAUCGGAAGAGCACACGU | 10.3 ± 1.8
22 | target 2 MT 5'PFS GUG 3'PFS AGG (mixed) RNA 1: CACCCGUGCAAAAUUGCAGGGGUCUAAAACCUUCUCCAAAUUGUUUCAUCCU RNA 2: GGGAAUGGAUCCACAUCUACGAAUUCGUGAGGAUGAAACAAUUUGGAGAAGAGGAGAUCGGAAGAGCACACGU | 11 ± 0.7
23 | target 2 MT 5'PFS CAC 3'PFS UUA (mixed) RNA 1: CACCCGUGCAAAAUUGCAGGGGUCUAAAACCUUCUCCAAAUUGUUUCAUCCU RNA 2: GGGAAUGGAUCCACAUCUACGAAUUCCACAGGAUGAAACAAUUUGGAGAAGUUAAGAUCGGAAGAGCACACGU | 4.4 ± 0.8
24 | target 2 MT 5'PFS UUA 3'PFS ACU (mixed) RNA 1: CACCCGUGCAAAAUUGCAGGGGUCUAAAACCUUCUCCAAAUUGUUUCAUCCU RNA 2: GGGAAUGGAUCCACAUCUACGAAUUCUUAAGGAUGAAACAAUUUGGAGAAGACUAGAUCGGAAGAGCACACGU | 32 ± 4
25 | target 2 MT 5'PFS GGG 3'PFS CGU (mixed) RNA 1: CACCCGUGCAAAAUUGCAGGGGUCUAAAACCUUCUCCAAAUUGUUUCAUCCU RNA 2: GGGAAUGGAUCCACAUCUACGAAUUCGGGAGGAUGAAACAAUUUGGAGAAGCGUAGAUCGGAAGAGCACACGU | 9.8 ± 0.7
26 | target 1 C6U,C21A (mixed) RNA 1: CACCCGUGCAAAAAUGCAGGGGUCUAAAACUGAGCGGAUAACCUCUCUAUGG RNA 2: GGGAAUGGAUCCACAUCUACGAAUUCGUACAAUAGAGAGGUUAUCUGCUCACCGAGAUCGGAAGAGCACACGU | 26.2 ± 1.6
27 | target 1 insG 3' of 22,insU 3' of 22 (mixed) RNA 1: CACCCGUGCAAAAAUGCAGGGGUCUAAAACUGAGCGGAUAACCUCUCUAUGG RNA 2: GGGAAUGGAUCCACAUCUACGAAUUCGUACGUCAUAGAGAGGUUAUCCGCUCACCGAGAUCGGAAGAGCACACGU | 23.5 ± 2.9
28 | target 1 insC 3' of 12,insA 3' of 10 (mixed) RNA 1: CACCCGUGCAAAAAUGCAGGGGUCUAAAACUGAGCGGAUAACCUCUCUAUGG RNA 2: GGGAAUGGAUCCACAUCUACGAAUUCGUACCAUAGAGAGGCUUAAUCCGCUCACCGAGAUCGGAAGAGCACACGU | 11.7 ± 1

Reference: article PMC10786891, “Massively parallel profiling of RNA-targeting CRISPR-Cas13d”
